The values that follow come from patent US20050032692A1 (BOARD OF TRUSTEES OF THE UNIVERSITY OF ILLINOIS, published 2005).

One test concerns the target T1, GFP-FoxM1B 1-688 protein (human, UniProt Q08050 1-703).
T1 construct: C-terminal truncation; construction not described; not shown: GFP
T1 sequence: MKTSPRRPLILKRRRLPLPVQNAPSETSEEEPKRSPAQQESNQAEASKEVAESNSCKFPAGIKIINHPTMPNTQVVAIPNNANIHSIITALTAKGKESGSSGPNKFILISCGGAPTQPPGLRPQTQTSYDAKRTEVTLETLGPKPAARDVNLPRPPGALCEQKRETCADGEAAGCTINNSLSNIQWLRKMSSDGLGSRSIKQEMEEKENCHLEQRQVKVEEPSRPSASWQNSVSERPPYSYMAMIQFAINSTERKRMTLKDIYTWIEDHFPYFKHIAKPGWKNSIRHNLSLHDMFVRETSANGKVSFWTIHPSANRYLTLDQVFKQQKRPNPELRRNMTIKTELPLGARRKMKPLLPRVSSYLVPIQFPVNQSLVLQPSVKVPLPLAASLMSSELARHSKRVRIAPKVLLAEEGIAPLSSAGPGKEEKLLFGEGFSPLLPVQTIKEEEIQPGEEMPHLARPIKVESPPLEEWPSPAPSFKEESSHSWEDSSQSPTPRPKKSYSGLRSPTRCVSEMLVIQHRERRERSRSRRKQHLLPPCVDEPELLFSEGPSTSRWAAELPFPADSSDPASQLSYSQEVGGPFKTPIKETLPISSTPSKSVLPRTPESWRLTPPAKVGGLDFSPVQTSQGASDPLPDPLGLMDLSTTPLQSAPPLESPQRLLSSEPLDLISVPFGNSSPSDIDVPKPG
Put plainly: Co-IP from transfected U2OS extracts.

The target in the next test is Cdk2 protein (UniProt P24941 1-298). Put plainly: Co-IP from transfected U2OS extracts with Cdk2 antibody, Western blot with T7 tag antibody. On the technique in general: Immunoblotting shows a protein as a band on a membrane.

B1: HA-p19^ARF protein, wild type (other, UniProt Q64364 1-169, looked up, not shown: small tags and cut ends)
chain: MGRRFLVTVRIQRAGRPLQERVFLVKFVRSRRPRTASCALAFVNMLLRLERILRRGPHRNPGPGDDDGQRSRSSSSAQLRCRFELRGPHYLLPPGARRSAGRLPGHAGGAARVRGSAGCARCLGSPAARLGPRAGTSRHRAIFAFRWVLFVFRWVVFVYRWERRPDRRA
notes: also called HA tagged p19; WT p19
Consider B1, for which the binding result with GFP-FoxM1B 1-688 protein was “no binding”.

B2: CMV T7-FoxM1B L641A mutant protein (other, not shown: small tags and cut ends)
chain: MKTSPRRPLILKRRRLPLPVQNAPSETSEEEPKRSPAQQESNQAEASKEVAESNSCKFPAGIKIINHPTMPNTQVVAIPNNANIHSIITALTAKGKESGSSGPNKFILISCGGAPTQPPGLRPQTQTSYDAKRTEVTLETLGPKPAARDVNLPRPPGALCEQKRETCADGEAAGCTINNSLSNIQWLRKMSSDGLGSRSIKQEMEEKENCHLEQRQVKVEEPSRPSASWQNSVSERPPYSYMAMIQFAINSTERKRMTLKDIYTWIEDHFPYFKHIAKPGWKNSIRHNLSLHDMFVRETSANGKVSFWTIHPSANRYLTLDQVFKQQKRPNPELRRNMTIKTELPLGARRKMKPLLPRVSSYLVPIQFPVNQSLVLQPSVKVPLPLAASLMSSELARHSKRVRIAPKVLLAEEGIAPLSSAGPGKEEKLLFGEGFSPLLPVQTIKEEEIQPGEEMPHLARPIKVESPPLEEWPSPAPSFKEESSHSWEDSSQSPTPRPKKSYSGLRSPTRCVSEMLVIQHRERRERSRSRRKQHLLPPCVDEPELLFSEGPSTSRWAAELPFPADSSDPASQLSYSQEVGGPFKTPIKETLPISSTPSKSVLPRTPESWRLTPPAKVGGLDFSPVQTSQGASDPLPDPLGAMDLSTTPLQSAPPLESPQRLLSSEPLDLISVPFGNSSPSDIDVPKPGSPEPQVSGLAANRSLTEGLVLDTMNDSLSKILLDISFPGLDEDPLGPDNINWSQFIPELQ
notes: also called CMV FoxM1B L641A
As to B2, in the test with Cdk2 protein, the binding result is reported as “no binding”.
